These results are taken from PMC4930482.

To fix the notation:
B1: RNF26, wild type (coIP of Figures 5A and 5B) [not stated] / TOLLIP (endogenous) [human (endogenous in a human melanoma cell line and in HEK293T)] (parent)
chain 1: MEAVYLVVNGLGLVLDVLTLVLDLNFLLVSSLLASLAWLLAFVYNLPHTVLTSLLHLGRGVLLSLLALIEAVVRFTCGGLQALCTLLYSCCSGLESLKLLGHLASHGALRSREILHRGVLNVVSSGHALLRQACDICAIAMSLVAYVINSLVNICLIGTQNLFSLVLALWDAVTGPLWRMTDVVAAFLAHISSSAVAMAILLWTPCQLALELLASAARLLASFVLVNLTGLVLLACVLAVTVTVLHPDFTLRLATQALSQLHARPSYHRLREDVMRLSRLALGSEAWRRVWSRSLQLASWPNRGGAPGAPQGDPMRVFSVRTRRQDTLPEAGRRSEAEEEEARTIRVTPVRGRERLNEEEPPGGQDPWKLLKEQEERKKCVICQDQSKTVLLLPCRHLCLCQACTEILMRHPVYHRNCPLCRRGILQTLNVYL
chain 2: not shown
B2: RNF26, wild type (coIP of Figures 5A and 5B) [not stated] / USP15 (endogenous) [human (endogenous in a human melanoma cell line and in HEK293T)] (parent)
chain 1: B1 chain 1
chain 2: MAEGGAADLDTQRSDIATLLKTSLRKGDTWYLVDSRWFKQWKKYVGFDSWDKYQMGDQNVYPGPIDNSGLLKDGDAQSLKEHLIDELDYILLPTEGWNKLVSWYTLMEGQEPIARKVVEQGMFVKHCKVEVYLTELKLCENGNMNNVVTRRFSKADTIDTIEKEIRKIFSIPDEKETRLWNKYMSNTFEPLNKPDSTIQDAGLYQGQVLVIEQKNEDGTWPRGPSTPKSPGASNFSTLPKISPSSLSNNYNNMNNRNVKNSNYCLPSYTAYKNYDYSEPGRNNEQPGLCGLSNLGNTCFMNSAIQCLSNTPPLTEYFLNDKYQEELNFDNPLGMRGEIAKSYAELIKQMWSGKFSYVTPRAFKTQVGRFAPQFSGYQQQDCQELLAFLLDGLHEDLNRIRKKPYIQLKDADGRPDKVVAEEAWENHLKRNDSIIVDIFHGLFKSTLVCPECAKISVTFDPFCYLTLPLPMKKERTLEVYLVRMDPLTKPMQYKVVVPKIGNILDLCTALSALSGIPADKMIVTDIYNHRFHRIFAMDENLSSIMERDDIYVFEININRTEDTEHVIIPVCLREKFRHSSYTHHTGSSLFGQPFLMAVPRNNTEDKLYNLLLLRMCRYVKISTETEETEGSLHCCKDQNINGNGPNGIHEEGSPSEMETDEPDDESSQDQELPSENENSQSEDSVGGDNDSENGLCTEDTCKGQLTGHKKRLFTFQFNNLGNTDINYIKDDTRHIRFDDRQLRLDERSFLALDWDPDLKKRYFDENAAEDFEKHESVEYKPPKKPFVKLKDCIELFTTKEKLGAEDPWYCPNCKEHQQATKKLDLWSLPPVLVVHLKRFSYSRYMRDKLDTLVDFPINDLDMSEFLINPNAGPCRYNLIAVSNHYGGMGGGHYTAFAKNKDDGKWYYFDDSSVSTASEDQIVSKAAYVLFYQRQDTFSGTGFFPLDRETKGASAATGIPLESDEDSNDNDNDIENENCMHTN
B3: RNF26, wild type (coIP of Figures 5A and 5B) [not stated] / EPS15 (endogenous) [human (endogenous in a human melanoma cell line and in HEK293T)] (parent)
chain 1: B1 chain 1
chain 2: MAAAAQLSLTQLSSGNPVYEKYYRQVDTGNTGRVLASDAAAFLKKSGLPDLILGKIWDLADTDGKGILNKQEFFVALRLVACAQNGLEVSLSSLNLAVPPPRFHDTSSPLLISGTSAAELPWAVKPEDKAKYDAIFDSLSPVNGFLSGDKVKPVLLNSKLPVDILGRVWELSDIDHDGMLDRDEFAVAMFLVYCALEKEPVPMSLPPALVPPSKRKTWVVSPAEKAKYDEIFLKTDKDMDGFVSGLEVREIFLKTGLPSTLLAHIWSLCDTKDCGKLSKDQFALAFHLISQKLIKGIDPPHVLTPEMIPPSDRASLQKNIIGSSPVADFSAIKELDTLNNEIVDLQREKNNVEQDLKEKEDTIKQRTSEVQDLQDEVQRENTNLQKLQAQKQQVQELLDELDEQKAQLEEQLKEVRKKCAEEAQLISSLKAELTSQESQISTYEEELAKAREELSRLQQETAELEESVESGKAQLEPLQQHLQDSQQEISSMQMKLMEMKDLENHNSQLNWCSSPHSILVNGATDYCSLSTSSSETANLNEHVEGQSNLESEPIHQESPARSSPELLPSGVTDENEVTTAVTEKVCSELDNNRHSKEEDPFNVDSSSLTGPVADTNLDFFQSDPFVGSDPFKDDPFGKIDPFGGDPFKGSDPFASDCFFRQSTDPFATSSTDPFSAANNSSITSVETLKHNDPFAPGGTVVAASDSATDPFASVFGNESFGGGFADFSTLSKVNNEDPFRSATSSSVSNVVITKNVFEETSVKSEDEPPALPPKIGTPTRPCPLPPGKRSINKLDSPDPFKLNDPFQPFPGNDSPKEKDPEIFCDPFTSATTTTNKEADPSNFANFSAYPSEEDMIEWAKRESEREEEQRLARLNQQEQEDLELAIALSKSEISEA

The variants in one assay derive from B1. Description: coIP. The arrangement: reference not given here. Conditions: with TOLLIP (endogenous) [human (endogenous in a human melanoma cell line and in HEK293T)]; HEK293T cells; n = 3; read off a plot.
In the case of chain 1 I382R, the percent of parent turned out to be 12 % Co-IP.

A further assay covers variants of B2. Put plainly: coIP. The following applies: with USP15 (endogenous) [human (endogenous in a human melanoma cell line and in HEK293T)]; HEK293T cells; n = 3; read off a plot.
Turning to chain 1 I382R, the percent of parent came out at 27 % Co-IP.

The variants in another assay derive from B3. Description: coIP. Conditions: with EPS15 (endogenous) [human (endogenous in a human melanoma cell line and in HEK293T)]; HEK293T cells; n = 3; read off a plot.
For chain 1 I382R, the percent of parent was found to be 22 % Co-IP.
